Test results from the MegaScale stability set (Tsuboyama et al. 2023).

B1: EEHEE_rd4_0003 (parent)
chain: KKVTINGVEIKFNNPEEAVKFALELAKRLNLRIEFHGDQIKIE
B2: EEHEE_rd4_0363 (parent)
chain: VTVDIKGMEYHFDNPEEAKKFAERMAKELGGELKVENGTLKVE

Variants of: B1
Experiment: folding stability dG (cDNA display proteolysis); higher = more stable
Conditions: PBS, room temperature

Folding stability dG [kcal/mol]: each site, then its substitutions
I40: M 1.92 | T 1.51 | L 2.1 | H 1.56 | S 1.43 | R 1.25 | A 1.49 | V 2.07 | C 2.22 | F 1.78 | W 2.02 | Q 1.39 | D 1.39 | G 1.37 | E 1.44 | N 1.44 | P 1.24 | Y 1.64 | K 1.5
E34: Y 2.77 | N 2.27 | Q 2.44 | T 2.86 | R 2.58 | W 2.62 | S 2.77 | M 2.47 | K 2.42 | V 2.73 | P 1.48 | L 2.49
I42: S 1.47 | M 2.25 | D 1.36 | P 1.27 | W 1.58 | A 1.29 | Y 1.6 | N 1.74 | E 1.3 | R 1.44 | G 1.26 | K 1.43 | Q 1.24 | T 1.38 | V 2.31 | H 1.63 | L 3.07 | F 2.22
H36: I 2.93 | V 2.89 | T 2.7 | E 2.58 | K 2.53 | A 2.62 | W 2.73 | N 2.58 | R 2.52 | L 2.88 | D 2.76 | G 2.28 | P 1.71 | F 2.78 | S 2.66 | Q 2.56 | M 2.72 | Y 2.75 | C 3.21
E43: C 3.85 | V 3.28 | D 2.5 | T 3.27 | Q 2.66 | W 3.45 | L 3.23 | R 2.64 | S 2.99 | M 3.13 | F 3.59 | I 3.32 | K 2.65 | G 2.8 | A 2.59 | H 2.82 | Y 3.45 | N 2.6 | P 1.83
D38: C 3.49 | N 2.61 | G 2.31 | M 2.34 | H 2.25 | K 2.15 | I 2.49 | Y 2.45 | T 2.29 | A 2.15 | V 2.23 | S 2.32 | Q 2.25 | L 2.33 | F 2.7 | P 2.1 | R 2.01 | E 2.3 | W 2.73
K41: L 2.86 | G 1.73 | W 2.85 | T 2.69 | Q 2.27 | M 2.71 | R 2.8 | S 2.46 | D 1.91 | A 2.36 | Y 2.94 | F 3 | H 2.49 | P 1.3 | N 2.52 | V 3 | I 3.21 | E 2.1 | C 3.17
G37: T 2.26 | E 2.52 | L 2.45 | R 2.29 | W 2.44 | P 2.49 | D 2.45 | V 2.38 | N 2.41 | F 2.48 | S 2.35 | A 2.39 | C 2.68 | K 2.47 | H 2.42 | I 2.35 | Q 2.44 | Y 2.41 | M 2.52
Q39: N 2.82 | M 2.88 | T 3.22 | S 2.75 | D 2.64 | P 1.77 | K 2.33 | G 2.52 | F 2.91 | L 2.95 | V 3.18 | E 2.92 | R 2.52 | W 3.07 | Y 3.04 | C 3.11 | H 2.91 | A 2.62 | I 3.05
F35: V 2.37 | Q 1.79 | T 1.82 | R 1.8 | S 1.64 | M 2.24 | L 2.2 | A 1.71 | D 1.5 | H 1.88 | P 1.31 | C 3.05 | E 1.63 | W 2.7 | G 1.41 | N 1.46 | K 1.78 | I 2.58 | Y 2.41

Variants of: B2
Experiment: as above
Conditions: PBS, room temperature

Folding stability dG [kcal/mol] of substitutions, site by site:
V1: W 2.81 | K 1.2 | L 2.03 | Y 2.55 | D 0.479 | N 1.31 | P 0.612 | T 2.01 | Q 1.33 | H 1.63 | C 2.67 | M 2 | F 2.41 | R 1.29 | G 0.889 | A 1.48 | E 0.523 | S 1.45 | I 2.06
T2: V 2.21 | H 1.26 | M 1.71 | E 0.41 | D 0.711 | W 2.04 | R 1.7 | F 1.65 | P 0.448 | G 0.389 | A 1.1 | Q 1.03 | K 1.95 | N 1.1 | L 1.81 | I 2.37 | Y 1.52 | S 1.31
I5: E 0.155 | A 0.423 | L 1.23 | P -0.167 | H 0.78 | V 1.88 | M 0.754 | Q 0.05 | W 1.49 | D 0.025 | C 1.99 | Y 1.52 | F 1.44 | S 0.289 | R 0.036 | K 0.088 | G 0.128 | T 0.201
M8: R 2.41 | H 1.99 | K 2.44 | W 1.78 | E 1.63 | T 2.26 | N 1.58 | L 1.93 | G 0.564 | V 2.52 | A 1.54 | S 1.55 | P -0.136 | I 2.46 | F 2.11 | C 2.23 | Q 2.05 | Y 2.06 | D 1.24
K6: H 2.74 | N 2.84 | R 2.17 | A 2.53 | M 3.32 | D 2.92 | C 3.13 | F 3.4 | P 0.366 | V 1.81 | W 2.62 | S 2.31 | E 2.26 | Q 2.34 | T 1.5 | Y 2.87 | L 2.96 | G 2.68 | I 1.81
D4: H 2.91 | K 2.77 | E 2.56 | M 3.14 | T 2.85 | Y 3.35 | C 3.39 | R 2.75 | A 2.45 | S 2.98 | L 3.5 | W 3.59 | V 3.47 | P 0.415 | Q 2.75 | F 3.35 | G 1.39 | N 2.67 | I 3.73
E9: C 3.28 | A 1.99
G7: F 0.855 | I 0.499 | K 0.294 | Y 0.918 | T 0.445 | D 0.499 | E 0.306 | N 0.745 | L 0.238 | M 0.304 | P 0.309 | R 0.237 | S 0.507 | V 0.407 | C 1.72 | Q 0.441 | A 0.278 | W 0.811 | H 0.716
V3: G 0.059 | C 1.34 | I 1.18 | M 0.639 | D -0.088 | P 0.059 | S 0.004 | R -0.231 | W 0.119 | A 0.392 | Q 0.039 | H -0.104 | F 0.603 | L 1.04 | Y 0.332 | N -0.005 | E -0.171 | T 0.19 | K -0.032
